Assay results taken from article PMC12071944, “Interaction Between Glucagon-like Peptide 1 and Its Analogs with Amyloid-β Peptide Affects Its Fibrillation and Cytotoxicity” (International Journal of Molecular Sciences, 2025).

Molecular target: the molecule itself
Experiment: dynamic light scattering; 5–83 µM GLP-1(7-37); 25 °C; 25 mM Tris-HCl, 140 mM NaCl, 4.9 mM KCl, 2.5 mM CaCl2, 1 mM MgCl2, pH 7.4; degree of multimerization MWRh/MWm

B1: glucagon-like peptide 1, residues 7-37 (peptide, UniProt P01275 98-128, looked up)
chain: HAEGTFTSDVSSYLEGQAAKEFIAWLVKGRG
notes: also called GLP-1(7-37); GLP-1
  stoichiometry N: > 210
